Measurements as given in patent US20140099332A1 (IMMUNOGEN, published 2014).
Several values for one entry are separate records, joined by “and”; a condition that tells them apart may be missing. Identical values can stand only once.

Legend:
[1] = molecular target: T1, human folate receptor 1 (FOLR1) on cells (human, UniProt P15328 25-234); assay: laser scanning cytometry on cell lines, optimal dilution 1:100
T1 construct: also called FRA; huFolR1
Method: (§1) Three cell lines with varying levels of FOLR1 expression were selected as representative of high expression (KB), low expression (OVCAR3), and no expression (A549). Unlabeled FR1-9 and FR1-13, as well as a commercial anti-FOLR1 antibody (“commercial FRA”), were titrated, and optimal titrations were determined for each of the antibodies using laser scanning cytometry (LSC) detection on the selected cell lines. […] Optimal dilutions were identified for each antibody as follows: 1:5 for commercial FRA, 1:100 for muFR1-9, and 1:200 for muFR1-13.

FOLR2 = molecular target: T2, FOLR2 (UniProt P14207 17-230, limits assumed); assay: ELISA on FOLR2-His antigen, antibody titrated ([Ab] (M)); positive control FR2 Ab reaches about 0.42 [left graph (FOLR2-His]
T2 construct: also called folate receptor 2

[2] = molecular target: T3, human FolR1-Fc fusion protein (human; mouse, UniProt P15328 25-233); assay: sandwich ELISA (FOLR1 ELISA): clone coated on the plate as capture antibody, FOLR-Fc fusion titrated, format as in FIG. 1
T3 construct: The construct encodes the 233 amino acids from the N-terminal signal peptide to just upstream of the GPI linkage site; also called huFOLR1-Fc; human folate receptor 1 Fc fusion molecule; not shown: residues encoded by the Pst1 to BamHI oligonucleotide linker
Method: The 40 clones were alternatively coated onto the assay plate in place of muFR1-9 in the diagram, and the resulting binding curves were analyzed shown in FIG. 5. Antibodies that contained the lowest half-maximal response (EC50) were considered to have the highest binding specificity to FOLR1, and thus were chosen as the top candidates for the assay.

FOLR3 = molecular target: T4, FOLR3 (human, UniProt P41439 23-245, limits assumed); assay: ELISA with FOLR3-His antigen titrated ([Ag ug/ml]); positive control reaches about 2.6 after 3 min development [right graph (FOLR3-His]
T4 construct: also called folate receptor 3

[3] = molecular target: T1, human folate receptor 1 (FOLR1) on cells; assay: apparent binding affinity 'by both methods': flow cytometry on T47D cells and ELISA; unit M taken from the preceding value; lower end of the range given for FR1-9; flow cytometry on T47D cells and ELISA
Method: (§2) To assure that materials were continuously performing as expected, all antibodies were screened for binding by both ELISA and flow cytometry methods known in the art. Flow cytometry was performed using FOLR1 expressing human T47D cells cultured using in-vitro cell culture techniques known in the art. The antibodies were bound to these cells and detected indirectly using a goat anti-murine Alexa-fluor 488 detection antibody on a FACScalibur machine (FIG. 6A-B).

[4] = molecular target: T1, human folate receptor 1 (FOLR1) on cells; assay: apparent binding affinity 'by both methods': flow cytometry on T47D cells and ELISA; unit M taken from the preceding value; upper end of the range given for FR1-9; flow cytometry on T47D cells and ELISA
Method: as §2

[5] = molecular target: T1, human folate receptor 1 (FOLR1) on cells; assay: laser scanning cytometry on cell lines, optimal dilution 1:200
Method: as §1

[6] = molecular target: T1, human folate receptor 1 (FOLR1) on cells; assay: indirect flow cytometry, T47D cells, Alexa-488 goat anti-mouse
Method: as §2

[7] = molecular target: T3, human FolR1-Fc fusion protein; assay: sandwich ELISA (Folate ELISA): 1 ug/ml FR1-64, 1 ug/ml FR1-13-Biotin, FOLR1-Fc titrated
[8] = molecular target: T5, FOLR1 (antigen of the screening ELISAs, form not stated) (human, UniProt P15328 25-234); assay: competition ELISA: serial concentrations of competing murine clone against a constant concentration of (biotinylated) muFR1-13
T5 construct: It may be the FOLR1-Fc fusion; also called the same antigen; the target

[9] = molecular target: T3, human FolR1-Fc fusion protein; assay: sandwich ELISA: Mu FOLR1-13 coated on the plate, FOLR-Fc fusion titrated, detected with Hu Mov19 and polyclonal goat anti-human HRP
[10] = molecular target: T1, human folate receptor 1 (FOLR1) on cells; assay: apparent binding affinity 'by both methods': flow cytometry on T47D cells and ELISA; lower end of the range given for FR1-13; flow cytometry on T47D cells and ELISA
Method: as §2

[11] = molecular target: T1, human folate receptor 1 (FOLR1) on cells; assay: apparent binding affinity 'by both methods': flow cytometry on T47D cells and ELISA; upper end of the range given for FR1-13; flow cytometry on T47D cells and ELISA
Method: as §2

T2 sequence (P14207 17-230 limits assumed): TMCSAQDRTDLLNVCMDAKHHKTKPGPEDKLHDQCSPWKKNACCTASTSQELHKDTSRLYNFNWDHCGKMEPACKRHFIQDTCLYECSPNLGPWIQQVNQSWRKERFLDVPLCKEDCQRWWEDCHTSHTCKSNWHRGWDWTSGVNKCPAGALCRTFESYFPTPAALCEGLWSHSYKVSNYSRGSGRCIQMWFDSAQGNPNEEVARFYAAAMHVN
T3 sequence (P15328 25-233): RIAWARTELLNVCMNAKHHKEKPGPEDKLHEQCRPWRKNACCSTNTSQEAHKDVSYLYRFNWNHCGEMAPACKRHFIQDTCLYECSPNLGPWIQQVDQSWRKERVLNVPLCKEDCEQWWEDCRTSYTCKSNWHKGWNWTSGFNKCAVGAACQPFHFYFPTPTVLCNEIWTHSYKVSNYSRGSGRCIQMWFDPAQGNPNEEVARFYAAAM
T1 sequence (P15328 25-234): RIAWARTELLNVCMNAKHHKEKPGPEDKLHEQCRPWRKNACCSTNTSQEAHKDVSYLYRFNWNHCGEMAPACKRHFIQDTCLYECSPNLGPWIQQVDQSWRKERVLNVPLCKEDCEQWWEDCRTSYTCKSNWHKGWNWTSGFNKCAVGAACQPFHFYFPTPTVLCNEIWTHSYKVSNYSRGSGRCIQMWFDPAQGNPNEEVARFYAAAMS
T4 sequence (P41439 23-245 limits assumed): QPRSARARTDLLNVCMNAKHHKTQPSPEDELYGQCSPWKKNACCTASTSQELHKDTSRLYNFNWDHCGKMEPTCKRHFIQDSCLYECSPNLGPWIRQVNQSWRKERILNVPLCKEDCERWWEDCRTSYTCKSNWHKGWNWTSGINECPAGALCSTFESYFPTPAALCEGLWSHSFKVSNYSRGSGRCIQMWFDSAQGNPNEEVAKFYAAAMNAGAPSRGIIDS
T5 sequence (P15328 25-234 limits assumed): as the sequence (P15328 25-234) above

B1: muFR1-9 (antibody, mouse IgG1, kappa, V domains shown)
VH: QVQLVESGGGLVQPGGSRKLSCAASGFTFSSFGMHWVRQAPEKGLEWVAYISSGSSTFYYADTVKGRFTISRDNPKNTLFLQMTSLRSEDTAMYYCAKELTGTFAYWGQGTLVTVSA
VL: DIVLTQSPATLSVTPGDSVSLSCRASQSINNNLHWYQQKSHESPRLLIKYASQSISGIPSRFSGSGSGTDFTLSINSVETEDFGMYFCQQSNSWPQVTFGAGTKLELKR
notes: Murine monoclonal purified from hybridoma supernatant; Capture antibody of the sandwich ELISA; also called murine FR1-9
With B1 the “signal to background ration” value [1] was 4.07, the binding result (FOLR2) was “no binding (tested: about 10^-8 M antibody)” and the “EC50 (read off the curve)” value [2] was about 0.004 nM. The binding result (FOLR3) was “no binding (tested: about 2.5 ug/ml antigen)”, the Kd [3] was at least 2 nM and the Kd [4] was at most 4 nM.

B2: muFR1-62 (antibody, mouse IgG1, kappa, V domains shown)
VH: QVQLQQSGAELARPGASVKMSCKASGYTFTTYTMHWVKQRPGQGLEWIAYINPTSGYNNYNQKFKEKATLTADKSSSTAYMQLTSLTSEDSAVYYCASGGAYGRRPVDYWGQGTSVTVSS
VL: DIVMTQSQKFMSISVGDRVSVTCKASQNVGTNVAWYQQKPGQSPKTLIYSASSRYSGVPDRFTGSGSGTDFTLTISNVQSEDLADYFCHQYNSYPYTFGGGTKLEIKR
notes: Murine monoclonal; The full-length light chain differs from the VL by shifted residues
With B2 the binding result (FOLR2) was “no binding (tested: about 10^-8 M antibody)”, the “EC50 (read off the curve)” value [2] was about 0.01 nM and the binding result (FOLR3) was “no binding (tested: about 2.5 ug/ml antigen)”.

B3: muFR1-53 (antibody, mouse IgG1, kappa, V domains shown)
VH: QVQLQQSGPELVRPGASVKMSCKASGYKFTDYDISWVLQRTGQGLEWIGEIYPGSGRTYYNERFKGKATLTADKSSNTVYMQLSSLTSEDSAVYFCASSYYYGTNSPFAYWGQGTTLTVSS
VL: DIQMTQTTSSLSASLGDRVTISCRASQDISNYLHWYQRKPDGTVKLLVYYTSRLQSGVPSRFSGSGSGTDYSLTISNLEQEDIATYFCQQGNSLPPTFGSGTKLEIKR
notes: The full-length chains differ from the variable domains by shifted residues
In the case of B3, the binding result (FOLR2) is reported as “no binding (tested: about 10^-8 M antibody)”, the “EC50 (read off the curve)” value [2] is reported as about 0.01 nM and the binding result (FOLR3) is reported as “no binding (tested: about 2.5 ug/ml antigen)”.

B4: muFR1-13 (antibody, mouse IgG2b, kappa, V domains shown)
VH: QVQLKESGPDLVAPSQSLSITCTVSGFSLSRYSVHWIRQPPGKGLEWLGMIWSGGNTDYNSVFKSRLNITKDNSKSQVFLKMNSLQTDDTAIYYCATFDGKVSWFAYWGQGTLVTVSA
VL: SIVMTQTPKFLLVSTGDRFTITCKASQSVSNDVLWYQQKPGQSPKLLIYYAYNRYSGVPDRFTGSGYGTDFTFTITTVQSEDLAVYFCQQDHSSPFTFGSGTKLEIKR
notes: Murine monoclonal purified from hybridoma supernatant; also called muFR1-13b (biotinylated); Biotinylated FR1-13
With B4 the “signal to background ration” value [5] was 4.19, the “EC50 (read off the curve)” value [6] was ~1 nM and ~2 nM and the “EC50 (read off the curve)” value [7] was ~2 nM and ~3 nM. For the same binder, the binding result (FOLR2) was “no binding (tested: about 10^-8 M antibody)”, the “IC50 (read off the curve)” value [8] was about 0.07 µg/mL and the “EC50 (read off the curve)” value [9] was about 0.005 nM. For the same binder, the binding result (FOLR3) was “no binding (tested: about 2.5 ug/ml antigen)”, the Kd [10] was at least 1 nM and the Kd [11] was at most 3 nM.
